“Also recorded” adds a separate entry of the source.
Assays:
Format in all cases: cell-based
RORα = test: Phosphorylation of RORα in HCT116 cells (immunoprecipitation / immunoblot with anti-phospho-Ser or anti-phospho-RORαS35 antibody); conditions: HCT116 cells, treatment alone
Experimental: (A) Schematic representation of RORα showing the location of the N-terminal domain (NTD), the DNA-binding domain (DBD), the hinge region, the ligand-binding domain (LBD), and the AF-2 domain. […] HEK293 cells were cotransfected with plasmids expressing each His-tagged RORα deletion construct and β-catenin. Whole cell extracts (left panel) and Ni^+-NTA-agarose pulldown materials (right panel) were analyzed by immunoblotting against anti-β-catenin IgG or anti-Xpress IgG. (C) Illustration of the structure of deletion fragments of RORα(SEQ ID NO:17). (D) Interaction of each RORα deletion construct with HisMax-β-catenin was assessed by Ni^+-NTA-agarose pulldown assay. […] The phosphorylated peptide samples were analyzed by LC-MS analysis. […] Immunoprecipitation assay was conducted with anti-Flag antibody, and the phosphorylated RORα was detected by immunoblot analysis with anti-phospho-Ser antibody. […] The reaction samples were subjected to 12% SDSPAGE, and phosphorylated RORα was detected by autoradiography. […] The fluorescence-conjugated secondary antibody was visualized using fluorescence microscopy, and nuclear staining with DAPI was shown.
(A) The specificity of the antibody raised against phosphorylated RORαS35 peptide (SEQ ID NO:18) was assessed by dot blot analysis. (B) Treatment of TPA increased phophorylated RORα on S35 site as assessed by immunoprecipitation with anti-phospho-RORαS35 antibody. […]

cyclin D1 = test: Immunoblot of cyclin D1 expression in colon cancer cells
Source text: (§1) (A) Treatment of Wnt5a increased phosphorylated RORα and PKCα but decreased cyclin D1 expression as assessed by immunoblot analysis against each antibody.

PKCα = test: Immunoblot against anti-phospho-PKCα antibody after Wnt5a treatment; conditions: anti-phospho-PKCα antibody (active form)
Source text: as §1

cyclin D1 promoter = test: ChIP assay on the cyclin D1 promoter in HCT116 cells
Experimental: (A) The specificity of the antibody raised against phosphorylated RORαS35 peptide (SEQ ID NO:18) was assessed by dot blot analysis. (B) Treatment of TPA increased phophorylated RORα on S35 site as assessed by immunoprecipitation with anti-phospho-RORαS35 antibody. […] (D) Treatment of Go6976, a PKCα inhibitor, abolished TPA-dependent phosphorylation of RORα as assessed by immonoblotting with anti-phospho-RORαS35 antibody. (E) HCT116 cells were transfected with Flag-RORα WT, S35D, or S35A, and the cell extracts were immunoprecipitated with anti-Flag antibody followed by immunoblotting against anti-β-catenin antibody. (F) Coimmunoprecipitation assay of β-catenin with either RORαWT or S35A in HCT116 cells after treatment with TPA in the absence or presence of Go6976. (G) ChIP analysis on the cyclin D1 promoter after transfection with Flag-RORαWT, S35A, or S35D in HCT116 cells. (H) ChIP analysis on the cyclin D1 promoter in HCT116 cells after TPA treatment for indicated time. (I) ChIP assay was performed on the cyclin D1 promoter in the absence or presence of siRNA against PKCα with treatment of TPA for 90 min. (J) Real-time quantitative RT-PCR analysis of the cyclin D1 transcript in HCT116 cells in the presence of TPA for indicated time. (K) Knockdown effect of siRNA against RORα or PKCα was assessed in the expression of the cyclin D1 transcript in HCT116 cells.
(B) Cyclin D1 transcript was measured after introducing siRNAs against RORα or PKCα in the presence of Wnt5a in HCT116 cells. (C) Real-time quantitative RTPCR analysis of the cyclin D1 transcript in HCT116 cells after introducing RORα, S35A, or S35D in the presence of Wnt5a. (D) […] on the cyclin D1 promoter with treatment of either TPA or Wnt5a in HCT116 cells. Occupancy of the cyclin D1 promoter by phosphorylated RORα, β-catenin, RNA polymerase II, H3K9me2, H3K4me2, CBP, pCAF, p300, or SMRT was indicated. (E) Transwell cell migration assay for RORα, RORαS35A, or RORαS35D-expressing HCT116 cells with treatment of Wnt5a. Values are represented as mean±s.d. for three independent experiments. (F) The anchorage-independent growth of HCT116 cells expressing RORα, RORαS35A, or RORαS35D in soft agar. Values are expressed as mean±SEM for two experiments in 6 place wells. Colonies were counted in 10 different fields and total colony number/well was calculated. Representative image is shown for each group.
The ChIP, two-step ChIP, and shRNA-coupled ChIP assays were conducted as previously described (Baek et al., 2002; Kim et al., 2005).

cyclin D1 transcript = test: Real-time quantitative RT-PCR of the cyclin D1 transcript in HCT116 cells
Experimental: The abundance of mRNA was detected by an ABI prism 7300 system with SYBR Green (molecular probes). Primer pairs were designed to amplify 90-150 bp mRNA specific fragments, and confirmed to be unique products by melting curve analysis. The PCR conditions were 95° C. (5 min) and 40 cycles of 95° C. (30 s), 57° C. (30 s), and 72° C. (30 s).
The quantity of mRNA was calculated using the ΔΔCt method and normalized by using primers to detect β-actin or HPRT. All reactions were performed in triplicates.

[1] = tested on: HCT116 colon cancer cells; test: Transwell cell migration assay; conditions: Wnt5a 100 ng/ml pretreatment 2 hr, compared to non-treated cells
Experimental: HCT116 cells stably expressing RORα, RORαS35A, or RORαS35D were used in Transwell cell migration assays along with control cells. Transwell cell migration assay was conducted as previously described (Kim et al., 2006). Cultured cells were pretreated with Wnt5a (100 ng/ml) for 2 hr, and 2.5×10^4HCT116 cells were loaded onto the top of a 24-well Transwell chamber assay plate (BD Biosciences). Conditioned McCoy's 5A medium containing 15% fetal bovine serum was added to the bottom chamber as a chemoattractant. After 22 hr incubation, the cells that had migrated to the lower chamber of the filter were fixed with 100% methanol, stained with DAPI, and quantified by counting the total number of cells in four different fields. All experimental studies were performed according to the manufacturer's protocols. Values are expressed as means±standard deviations for at least three independent experiments.

B1: Wnt5a: a noncanonical Wnt ligand (protein, UniProt P41221 62-380, looked up)
Protein Wnt-5a: IIGAQPLCSQLAGLSQGQKKLCHLYQDHMQYIGEGAKTGIKECQYQFRHRRWNCSTVDNTSVFGRVMQIGSRETAFTYAVSAAGVVNAMSRACREGELSTCGCSRAARPKDLPRDWLWGGCGDNIDYGYRFAKEFVDARERERIHAKGSYESARILMNLHNNEAGRRTVYNLADVACKCHGVSGSCSLKTCWLQLADFRKVGDALKEKYDSAAAMRLNSRGKLVQVNSRFNSPTTQDLVYIDPSPDYCVRNESTGSLGTQGRLCNKTSEGMDGCELMCCGRGYDQFKTVQTERCHCKFHWCCYVKCKKCTEIVDQFVCK
phosphorylation of RORα (RORα): increased phosphorylation
cyclin D1 expression (cyclin D1): downregulation; also recorded: decreased
phosphorylation of PKCα (PKCα): increased phosphorylation
RNA polymerase II recruitment on the cyclin D1 promoter (cyclin D1 promoter): decreased
methylation of histone H3K9 on the cyclin D1 promoter (cyclin D1 promoter): increased methylation
recruitment of CBP, p300, and pCAF coactivators to the cyclin D1 promoter (cyclin D1 promoter): significantly decreased
recruitment of phosphorylated RORα on the cyclin D1 promoter (cyclin D1 promoter; anti-phospho-RORαS35 IgG): increased the recruitment
cyclin D1 transcript (cyclin D1 transcript): reduced
migration of HCT116 colon cancer cells [1]: attenuated
